{"source": "patent US20230183713A1", "about": "“SITE-SPECIFIC RECOMBINASES FOR EFFICIENT AND SPECIFIC GENOME EDITING” (TECHNISCHE UNIVERSITÄt DRESDEN, published 2023)", "key": {"[1]": {"target": "T1, Cre recombinase monomer with K201I mutation", "T1 chain": "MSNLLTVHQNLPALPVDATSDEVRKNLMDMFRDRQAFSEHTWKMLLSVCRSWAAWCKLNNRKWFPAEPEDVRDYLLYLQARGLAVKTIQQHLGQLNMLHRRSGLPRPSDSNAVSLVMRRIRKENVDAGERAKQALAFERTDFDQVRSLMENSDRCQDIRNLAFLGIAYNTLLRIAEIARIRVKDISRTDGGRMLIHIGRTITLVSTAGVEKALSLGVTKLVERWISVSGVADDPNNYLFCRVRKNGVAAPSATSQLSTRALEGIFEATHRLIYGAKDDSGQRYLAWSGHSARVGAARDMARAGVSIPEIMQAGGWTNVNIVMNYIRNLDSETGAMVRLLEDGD"}, "[2]": {"target": "T2, Cre recombinase monomer with K201R mutation", "T2 chain": "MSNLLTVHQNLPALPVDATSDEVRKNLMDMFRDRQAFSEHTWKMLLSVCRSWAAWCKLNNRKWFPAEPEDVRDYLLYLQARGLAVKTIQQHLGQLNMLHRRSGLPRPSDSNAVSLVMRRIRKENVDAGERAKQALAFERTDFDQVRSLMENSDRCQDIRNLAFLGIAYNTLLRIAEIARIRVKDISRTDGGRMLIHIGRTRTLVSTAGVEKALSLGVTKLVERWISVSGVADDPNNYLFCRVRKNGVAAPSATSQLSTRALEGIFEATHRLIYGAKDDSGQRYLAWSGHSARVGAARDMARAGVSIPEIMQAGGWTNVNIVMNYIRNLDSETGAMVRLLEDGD"}, "[3]": {"target": "T3, Cre recombinase monomer with W315R mutation", "T3 chain": "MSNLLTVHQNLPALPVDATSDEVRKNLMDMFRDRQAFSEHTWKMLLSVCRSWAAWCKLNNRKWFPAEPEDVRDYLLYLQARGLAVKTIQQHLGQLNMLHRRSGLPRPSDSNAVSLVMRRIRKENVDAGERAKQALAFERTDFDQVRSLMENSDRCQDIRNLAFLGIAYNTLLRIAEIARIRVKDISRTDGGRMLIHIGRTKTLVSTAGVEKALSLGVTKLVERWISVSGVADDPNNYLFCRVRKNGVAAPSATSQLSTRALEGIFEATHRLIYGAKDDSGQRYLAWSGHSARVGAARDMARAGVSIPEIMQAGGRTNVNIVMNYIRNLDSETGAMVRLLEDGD"}, "[4]": {"target": "T4, Cre recombinase monomer with Q311R mutation", "T4 chain": "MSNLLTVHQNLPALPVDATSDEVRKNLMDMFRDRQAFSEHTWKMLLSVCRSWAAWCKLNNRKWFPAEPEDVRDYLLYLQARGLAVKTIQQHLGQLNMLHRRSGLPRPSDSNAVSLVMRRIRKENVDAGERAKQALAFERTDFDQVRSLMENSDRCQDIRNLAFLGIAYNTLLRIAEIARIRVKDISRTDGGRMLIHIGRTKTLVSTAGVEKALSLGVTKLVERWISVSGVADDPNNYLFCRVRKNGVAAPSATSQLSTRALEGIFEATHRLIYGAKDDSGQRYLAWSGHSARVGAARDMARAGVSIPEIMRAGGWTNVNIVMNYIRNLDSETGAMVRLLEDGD"}, "[5]": {"target": "T5, Cre recombinase monomer with Y324F mutation", "T5 chain": "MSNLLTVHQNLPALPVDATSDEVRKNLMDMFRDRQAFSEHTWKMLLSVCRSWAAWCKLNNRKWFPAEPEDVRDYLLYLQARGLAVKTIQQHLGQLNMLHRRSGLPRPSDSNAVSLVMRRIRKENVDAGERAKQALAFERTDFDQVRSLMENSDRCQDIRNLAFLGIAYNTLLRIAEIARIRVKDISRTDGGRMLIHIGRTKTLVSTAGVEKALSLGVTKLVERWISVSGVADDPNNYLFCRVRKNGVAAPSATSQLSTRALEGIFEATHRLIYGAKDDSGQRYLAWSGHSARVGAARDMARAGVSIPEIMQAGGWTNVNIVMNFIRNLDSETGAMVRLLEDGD"}, "[6]": {"target": "T6, Cre recombinase monomer with W315T mutation", "T6 chain": "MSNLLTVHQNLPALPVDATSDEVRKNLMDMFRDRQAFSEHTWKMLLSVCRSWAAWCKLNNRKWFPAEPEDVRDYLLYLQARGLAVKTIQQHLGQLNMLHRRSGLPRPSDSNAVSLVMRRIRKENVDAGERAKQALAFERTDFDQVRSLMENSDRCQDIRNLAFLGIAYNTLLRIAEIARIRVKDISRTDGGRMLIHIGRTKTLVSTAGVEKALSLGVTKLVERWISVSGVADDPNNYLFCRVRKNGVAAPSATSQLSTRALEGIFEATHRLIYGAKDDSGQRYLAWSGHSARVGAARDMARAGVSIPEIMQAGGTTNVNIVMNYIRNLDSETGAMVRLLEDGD"}, "[7]": {"target": "T7, Cre recombinase monomer with Y324C mutation", "T7 chain": "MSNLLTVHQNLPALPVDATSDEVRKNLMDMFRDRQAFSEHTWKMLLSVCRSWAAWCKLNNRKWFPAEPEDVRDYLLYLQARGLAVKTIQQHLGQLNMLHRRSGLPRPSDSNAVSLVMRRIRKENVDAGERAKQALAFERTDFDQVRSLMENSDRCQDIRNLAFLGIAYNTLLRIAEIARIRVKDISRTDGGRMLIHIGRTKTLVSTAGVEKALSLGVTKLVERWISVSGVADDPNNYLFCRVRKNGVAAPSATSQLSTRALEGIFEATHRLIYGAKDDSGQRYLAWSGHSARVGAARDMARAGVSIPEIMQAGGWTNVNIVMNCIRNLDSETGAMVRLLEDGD"}, "[8]": {"target": "T8, Cre recombinase monomer with R292G mutation", "T8 chain": "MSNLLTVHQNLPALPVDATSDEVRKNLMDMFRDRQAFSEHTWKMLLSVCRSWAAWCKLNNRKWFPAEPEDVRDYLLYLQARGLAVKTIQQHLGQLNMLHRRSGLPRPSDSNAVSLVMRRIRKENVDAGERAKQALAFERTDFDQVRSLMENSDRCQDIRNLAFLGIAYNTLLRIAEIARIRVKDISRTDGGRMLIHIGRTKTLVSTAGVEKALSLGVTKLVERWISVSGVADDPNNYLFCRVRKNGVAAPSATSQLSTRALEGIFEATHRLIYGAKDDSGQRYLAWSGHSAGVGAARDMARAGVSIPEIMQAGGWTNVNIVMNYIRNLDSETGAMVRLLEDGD"}, "[9]": {"target": "T9, Cre recombinase monomer with W315I mutation", "T9 chain": "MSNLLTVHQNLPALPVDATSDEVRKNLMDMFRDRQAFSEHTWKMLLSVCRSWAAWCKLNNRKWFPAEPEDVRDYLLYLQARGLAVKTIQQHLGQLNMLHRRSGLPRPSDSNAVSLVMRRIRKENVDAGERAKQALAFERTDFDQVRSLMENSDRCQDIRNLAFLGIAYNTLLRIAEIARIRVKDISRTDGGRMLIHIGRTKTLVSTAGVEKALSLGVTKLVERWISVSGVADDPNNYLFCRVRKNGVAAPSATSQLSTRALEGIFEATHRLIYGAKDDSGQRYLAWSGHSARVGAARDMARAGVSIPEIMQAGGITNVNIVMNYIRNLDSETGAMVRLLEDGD"}, "[10]": {"target": "T10, Vika recombinase monomer with Q330R mutation", "T10 chain": "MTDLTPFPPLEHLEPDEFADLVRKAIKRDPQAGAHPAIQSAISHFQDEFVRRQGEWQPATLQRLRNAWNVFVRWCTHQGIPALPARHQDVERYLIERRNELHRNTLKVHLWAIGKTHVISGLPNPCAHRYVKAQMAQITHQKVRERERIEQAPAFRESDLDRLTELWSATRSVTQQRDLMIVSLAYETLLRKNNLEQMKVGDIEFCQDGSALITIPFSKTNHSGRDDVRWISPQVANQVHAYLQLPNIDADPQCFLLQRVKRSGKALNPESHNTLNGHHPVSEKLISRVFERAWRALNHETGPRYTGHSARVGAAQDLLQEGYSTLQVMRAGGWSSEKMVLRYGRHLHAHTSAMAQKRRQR"}}, "data": [{"protein": "Cre recombinase monomer with K201F mutation (protein) MSNLLTVHQNLPALPVDATSDEVRKNLMDMFRDRQAFSEHTWKMLLSVCRSWAAWCKLNNRKWFPAEPEDVRDYLLYLQARGLAVKTIQQHLGQLNMLHRRSGLPRPSDSNAVSLVMRRIRKENVDAGERAKQALAFERTDFDQVRSLMENSDRCQDIRNLAFLGIAYNTLLRIAEIARIRVKDISRTDGGRMLIHIGRTFTLVSTAGVEKALSLGVTKLVERWISVSGVADDPNNYLFCRVRKNGVAAPSATSQLSTRALEGIFEATHRLIYGAKDDSGQRYLAWSGHSARVGAARDMARAGVSIPEIMQAGGWTNVNIVMNYIRNLDSETGAMVRLLEDGD", "values": [{"measurement": "Median dimer activity (recombination on loxP)", "setting": "[1]", "result": 72, "unit": "%"}, {"measurement": "Median dimer activity (recombination on loxP)", "setting": "[2]", "result": 59, "unit": "%"}, {"measurement": "Median dimer activity (recombination on loxP)", "setting": "[3]", "result": 29, "unit": "%"}, {"measurement": "Median dimer activity (recombination on loxP)", "setting": "[4]", "result": 94, "unit": "%"}, {"measurement": "Median dimer activity (recombination on loxP)", "setting": "[5]", "result": 54, "unit": "%"}, {"measurement": "Median dimer activity (recombination on loxP)", "setting": "[6]", "result": 41, "unit": "%"}, {"measurement": "Median dimer activity (recombination on loxP)", "setting": "[7]", "result": 98, "unit": "%"}]}, {"protein": "Cre double mutant CreK201R+Q311R (both mutations in the same monomer) (protein) MSNLLTVHQNLPALPVDATSDEVRKNLMDMFRDRQAFSEHTWKMLLSVCRSWAAWCKLNNRKWFPAEPEDVRDYLLYLQARGLAVKTIQQHLGQLNMLHRRSGLPRPSDSNAVSLVMRRIRKENVDAGERAKQALAFERTDFDQVRSLMENSDRCQDIRNLAFLGIAYNTLLRIAEIARIRVKDISRTDGGRMLIHIGRTRTLVSTAGVEKALSLGVTKLVERWISVSGVADDPNNYLFCRVRKNGVAAPSATSQLSTRALEGIFEATHRLIYGAKDDSGQRYLAWSGHSARVGAARDMARAGVSIPEIMRAGGWTNVNIVMNYIRNLDSETGAMVRLLEDGD", "values": [{"measurement": "recombination on loxP excision substrate in E. coli", "result": "showed no observable recombination of the loxP target sequence"}]}, {"protein": "Cre recombinase monomer with K201Q mutation (protein) MSNLLTVHQNLPALPVDATSDEVRKNLMDMFRDRQAFSEHTWKMLLSVCRSWAAWCKLNNRKWFPAEPEDVRDYLLYLQARGLAVKTIQQHLGQLNMLHRRSGLPRPSDSNAVSLVMRRIRKENVDAGERAKQALAFERTDFDQVRSLMENSDRCQDIRNLAFLGIAYNTLLRIAEIARIRVKDISRTDGGRMLIHIGRTQTLVSTAGVEKALSLGVTKLVERWISVSGVADDPNNYLFCRVRKNGVAAPSATSQLSTRALEGIFEATHRLIYGAKDDSGQRYLAWSGHSARVGAARDMARAGVSIPEIMQAGGWTNVNIVMNYIRNLDSETGAMVRLLEDGD", "values": [{"measurement": "Median dimer activity (recombination on loxP)", "setting": "[4]", "result": 94, "unit": "%"}, {"measurement": "Median dimer activity (recombination on loxP)", "setting": "[8]", "result": 58, "unit": "%"}, {"measurement": "Median dimer activity (recombination on loxP)", "setting": "[9]", "result": 30, "unit": "%"}]}, {"protein": "Vika recombinase monomer with K219R mutation (protein) MTDLTPFPPLEHLEPDEFADLVRKAIKRDPQAGAHPAIQSAISHFQDEFVRRQGEWQPATLQRLRNAWNVFVRWCTHQGIPALPARHQDVERYLIERRNELHRNTLKVHLWAIGKTHVISGLPNPCAHRYVKAQMAQITHQKVRERERIEQAPAFRESDLDRLTELWSATRSVTQQRDLMIVSLAYETLLRKNNLEQMKVGDIEFCQDGSALITIPFSRTNHSGRDDVRWISPQVANQVHAYLQLPNIDADPQCFLLQRVKRSGKALNPESHNTLNGHHPVSEKLISRVFERAWRALNHETGPRYTGHSARVGAAQDLLQEGYSTLQVMQAGGWSSEKMVLRYGRHLHAHTSAMAQKRRQR", "values": [{"measurement": "recombination on vox excision substrate in E. coli", "setting": "[10]", "result": "A similar activity profile (although with some loss of activity) was seen when Vika^K219R and Vika^Q330R were co-expressed on the vox target sequence"}]}]}
